Assay results as given in patent publication US20110118447A1.
Substitutions are numbered along the chain they refer to. In names and notes the source's numbering stands. Values belong to the binder of their own block, whether it stands above or below them.

Key:
[1] = molecular target: binding partner of C5A (XPA23); assay: Biacore K-off
[2] = molecular target: binding partner of C5A (XPA23); assay: Biacore

B1: C5A (XPA23) VH S30R (antibody, V domains shown)
VH: EVQLLESGGGLVQPGGSLRLSCAASGFTFRKYFMFWVRQAPGKGLEWVSVISPSGGMTRYADSVKGRFTISRDNSKNTLYLQMNSLRAEDTAVYYCARVGYGGNSDYWGQGTLVTVSS
VL: DIQMTQSPSSVSASVGDRLTIICRASQDINRWLAWYQQTPGNAPKLLIHSATSLQSGVPSRFSGSGSGTDFTLTINSLQPEDFATYYCQQADSFPLTFGGGTKVEIK
fold difference in affinity vs original [1]: 0.1 fold
fold affinity vs original [2]: 0.1 fold

B4: C5A (XPA23) VL F94V (antibody, V domains shown)
VH: B1 VH with R30S
VL: B1 VL with F94V
fold difference in affinity vs original [1]: 0.2 fold

B6: C5A (XPA23) VL L96F (antibody, V domains shown)
VH: B1 VH with R30S
VL: B1 VL with L96F
fold difference in affinity vs original [1]: 0.28 fold

B7: C5A (XPA23) VL F94I (antibody, V domains shown)
VH: B1 VH with R30S
VL: B1 VL with F94I
fold difference in affinity vs original [1]: 0.88 fold

B8: C5A (XPA23) VL A91L (antibody, V domains shown)
VH: B1 VH with R30S
VL: B1 VL with A91L
fold difference in affinity vs original [1]: 0.39 fold

B9: C5A (XPA23) VL D92G (antibody, V domains shown)
VH: B1 VH with R30S
VL: B1 VL with D92G
fold difference in affinity vs original [1]: 0.26 fold

B10: C5A (XPA23) VL P95F (antibody, V domains shown)
VH: B1 VH with R30S
VL: B1 VL with P95F
fold difference in affinity vs original [1]: 0.98 fold

B11: C5A (XPA23) VL S53G (antibody, V domains shown)
VH: B1 VH with R30S
VL: B1 VL with S53G
fold difference in affinity vs original [1]: 1.03 fold

B12: C5A (XPA23) VL S53P (antibody, V domains shown)
VH: B1 VH with R30S
VL: B1 VL with S53P
fold difference in affinity vs original [1]: 4.92 fold

B13: C5A (XPA23) VL L96W (antibody, V domains shown)
VH: B1 VH with R30S
VL: B1 VL with L96W
fold difference in affinity vs original [1]: 4.49 fold

B14: C5A (XPA23) VL A51P (antibody, V domains shown)
VH: B1 VH with R30S
VL: B1 VL with A51P
fold difference in affinity vs original [1]: 0.13 fold

B15: C5A (XPA23) VL L96I (antibody, V domains shown)
VH: B1 VH with R30S
VL: B1 VL with L96I
fold difference in affinity vs original [1]: 0.67 fold

B16: C5A (XPA23) VL D92I (antibody, V domains shown)
VH: B1 VH with R30S
VL: B1 VL with D92I
fold difference in affinity vs original [1]: 0.33 fold

B18: C5A (XPA23) VL P95A (antibody, V domains shown)
VH: B1 VH with R30S
VL: B1 VL with P95A
fold difference in affinity vs original [1]: 3.83 fold

B19: C5A (XPA23) VL S53A (antibody, V domains shown)
VH: B1 VH with R30S
VL: B1 VL with S53A
fold difference in affinity vs original [1]: 1.07 fold

B20: C5A (XPA23) VH S30T (antibody, V domains shown)
VH: B1 VH with R30T
VL: B1 VL
fold difference in affinity vs original [1]: 0.06 fold
fold difference in affinity vs original [2]: 0.06 fold

B22: C5A (XPA23) VL F94P (antibody, V domains shown)
VH: B1 VH with R30S
VL: B1 VL with F94P
fold difference in affinity vs original [1]: 0.17 fold

B24: C5A (XPA23) VL D92W (antibody, V domains shown)
VH: B1 VH with R30S
VL: B1 VL with D92W
fold difference in affinity vs original [1]: 0.12 fold

B25: C5A (XPA23) VL L96A (antibody, V domains shown)
VH: B1 VH with R30S
VL: B1 VL with L96A
fold difference in affinity vs original [1]: 0.26 fold

B27: C5A (XPA23) VL A91V (antibody, V domains shown)
VH: B1 VH with R30S
VL: B1 VL with A91V
fold difference in affinity vs original [1]: 0.51 fold

B29: C5A (XPA23) VL S53F (antibody, V domains shown)
VH: B1 VH with R30S
VL: B1 VL with S53F
fold difference in affinity vs original [1]: 1.24 fold

B31: C5A (XPA23) VL S53I (antibody, V domains shown)
VH: B1 VH with R30S
VL: B1 VL with S53I
fold difference in affinity vs original [1]: 1.42 fold

B35: C5A (XPA23) VL D92F (antibody, V domains shown)
VH: B1 VH with R30S
VL: B1 VL with D92F
fold difference in affinity vs original [1]: 0.26 fold

B36: C5A (XPA23) VL D92A (antibody, V domains shown)
VH: B1 VH with R30S
VL: B1 VL with D92A
fold difference in affinity vs original [1]: 0.4 fold

B38: C5A (XPA23) VL F94L (antibody, V domains shown)
VH: B1 VH with R30S
VL: B1 VL with F94L
fold difference in affinity vs original [1]: 0.55 fold

B39: C5A (XPA23) VL S53L (antibody, V domains shown)
VH: B1 VH with R30S
VL: B1 VL with S53L
fold difference in affinity vs original [1]: 0.99 fold

B40: C5A (XPA23) VL S53V (antibody, V domains shown)
VH: B1 VH with R30S
VL: B1 VL with S53V
fold difference in affinity vs original [1]: 1.42 fold

B42: C5A (XPA23) VL A51L (antibody, V domains shown)
VH: B1 VH with R30S
VL: B1 VL with A51L
fold difference in affinity vs original [1]: 0.16 fold

B43: C5A (XPA23) VL S53W (antibody, V domains shown)
VH: B1 VH with R30S
VL: B1 VL with S53W
fold difference in affinity vs original [1]: 1.11 fold

B44: C5A (XPA23) VL D92L (antibody, V domains shown)
VH: B1 VH with R30S
VL: B1 VL with D92L
fold difference in affinity vs original [1]: 0.14 fold

B45: C5A (XPA23) VL A51W (antibody, V domains shown)
VH: B1 VH with R30S
VL: B1 VL with A51W
fold difference in affinity vs original [1]: 0.24 fold

Other lines, results leading:

fold difference in affinity vs original [1]: 3.81 fold
B2: C5A (XPA23) VL S93V (antibody, V domains shown)
VH: B1 VH with R30S
VL: B1 VL with S93V

fold difference in affinity vs original [1]: 1.05 fold
B3: C5A (XPA23) VL T52F (antibody, V domains shown)
VH: B1 VH with R30S
VL: B1 VL with T52F

fold difference in affinity vs original [1]: 1.16 fold
B5: C5A (XPA23) VL S93A (antibody, V domains shown)
VH: B1 VH with R30S
VL: B1 VL with S93A

fold difference in affinity vs original [1]: 1.08 fold
B17: C5A (XPA23) VL T52P (antibody, V domains shown)
VH: B1 VH with R30S
VL: B1 VL with T52P

fold difference in affinity vs original [1]: 0.75 fold
B21: C5A (XPA23) VL S93G (antibody, V domains shown)
VH: B1 VH with R30S
VL: B1 VL with S93G

fold difference in affinity vs original [1]: 0.82 fold
B23: C5A (XPA23) VL T52V (antibody, V domains shown)
VH: B1 VH with R30S
VL: B1 VL with T52V

fold difference in affinity vs original [1]: 0.78 fold
B26: C5A (XPA23) VL T52L (antibody, V domains shown)
VH: B1 VH with R30S
VL: B1 VL with T52L

fold difference in affinity vs original [1]: 0.87 fold
B28: C5A (XPA23) VL T52W (antibody, V domains shown)
VH: B1 VH with R30S
VL: B1 VL with T52W

fold difference in affinity vs original [1]: 1.08 fold
B30: C5A (XPA23) VL S93L (antibody, V domains shown)
VH: B1 VH with R30S
VL: B1 VL with S93L

fold difference in affinity vs original [1]: 0.8 fold
B32: C5A (XPA23) VL T52I (antibody, V domains shown)
VH: B1 VH with R30S
VL: B1 VL with T52I

fold difference in affinity vs original [1]: 5.49 fold
B33: C5A (XPA23) VL S93W (antibody, V domains shown)
VH: B1 VH with R30S
VL: B1 VL with S93W

fold difference in affinity vs original [1]: 1.35 fold
B34: C5A (XPA23) VL S93I (antibody, V domains shown)
VH: B1 VH with R30S
VL: B1 VL with S93I

fold difference in affinity vs original [1]: 0.66 fold
B37: C5A (XPA23) VL T52A (antibody, V domains shown)
VH: B1 VH with R30S
VL: B1 VL with T52A

fold difference in affinity vs original [1]: 1.32 fold
B41: C5A (XPA23) VL S93F (antibody, V domains shown)
VH: B1 VH with R30S
VL: B1 VL with S93F
